Like-named read-outs stand apart in the source and are kept apart here.
B1: SNV-24 (antibody, V domains shown)
VH: EVQLLESGGGLIQSGGSLRLSCVVSGIDFSNYAMTWVRHAPGKGLEWISTISGSGDTTNYADSAKGRFTISRDNSRNTLFVRINSLRAEDTAIYYCAKTMGPVSGQYAFDIWGQGTKVTVSS
VL: SYELTQPPSVSVSPGQTATITCSGDNLGNKFASWYQQKPGLSPVLVIYQDKKRPSGIPERFSGSNSGNTATLTISGTQAMDEADYFCQAWHSGSVFGGGTKLTVL
B2: SNV-36 (antibody, V domains shown)
VH: QVQLVESGGGVVQPGRSLRLSCAASGFRFSSYAMHWVRQAPGKGLEWVATIWFDGTNEYYGDSAKGRFTISRDNSMSTLYLQMNSLRVEDTAVYYCARPANGYSDYYYGMDVWGQGTTVTVSS
VL: QSALTQPASVSGSPGQSITISCTGTSSDVGTYNLVSWYQQHPGKAPKLMIFEVNKRPSGVSYRFSGSKSGNTASLTISGLQAEDEADYYCCSYADNRTPFLFGTGTKVTVLG
B3: SNV-68 (antibody, V domains shown)
VH: QVQLQESGPGLVKPSGTLSLTCLVSGGSIGSSHWWSWVRQSPGKGLEWFGEIHHTESTNYNPSLKSRVTITMDKSKNQFYLKLTSVTAADTAVYYCARAGATFAEPFSLWGQGTMVTVSP
VL: DIQMTQSPSTLSASVGDRVTITCRAGQSVTNWLAWYQQKPGKAPKLLIYKASILASGVPSRFSGSGSGTEFTLTISSVQPDDSAVYYCQQYKSHRTFGQGTKVEIK
B4: SNV-67 (antibody, V domains shown)
VH: QVQLVQSGAEVKKPGASVRVSCKASGYTFTAYFMNWVRQAPGQGLEWMGRINPISGDTNFAQNFQGRVTMTRDTSITTVYMELNRLTSDDTAVYYCARVRSGYSYIDFWGQGTLVTVAS
VL: SYDLTQPPSVSVSPGQTARITCSGDALSNQYAYWYQQRPGQAPVVVIYKYSERPSGIPERFSGSSSGTTVTLTISGVQAEDEADYYCQSADRLGTYWVFGGGTKLTVL
B5: SNV-30 (antibody, V domains shown)
VH: QLQLQESGSRLVKSSETLSLTCAVSGGAITSGRNTWSWIRQPPGKGLEWIGFIYYSGSTYSNPITYSSPSLKSRVTISLDTSKNQFSLKLNSVTAADTAVYYCARAKPSNLNFYYYGMDVWGQGTTVTVSS
VL: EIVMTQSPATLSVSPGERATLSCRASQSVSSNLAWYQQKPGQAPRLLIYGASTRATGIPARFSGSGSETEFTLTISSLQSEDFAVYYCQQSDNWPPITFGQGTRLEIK
B6: SNV-65 (antibody, V domains shown)
VH: QVQLQESGPGLVKPSQTLSLTCTVSGGSISSGGYFWSWIRQHPGKGLEWIGYIYYSGSTYYNPSLKSRVTISIDTSKIQFSLKLTSVTAADTAVYYCARDVGGFDIWGQGTMVTVSS
VL: DIQMTQSPSSLSASIGDRVTITCQASQDINKYLNWYQQKPGKAPKVLIYDASNLETGVPSRFSGSGSGTDFTFTISSLQPEDVATYYCQQYENLPRTFGQGTKVEIK
B7: SNV-53 (antibody, V domains shown)
VH: EVQLVQSGAEVKTPGESLKISCKGSGYRFYTYWIAWVRQMPGKGLEWMGIIYPGDSDPRYSPSFQGQVTISADKSISTAYLQWSSLKASDTAMYYCVRVQGTMLDYWGQGTLVTVSS
VL: QSVLTQPPSVSGAPGQSVTISCSGSSSNIGAGYDVHWYQQLLGRAPKLLIHGNSNRPSGVPDRFSGSKSGTSGSLAITGLQSEDEADYYCQSYDISLSGWVFGGGTKLTVL
B8: ANDV-44 (antibody, V domains shown)
VH: QVQLVQSGAEVRKPGASVKVSCKASGYTFTSNGVSWVRQAPGQGLEWMGWIAGYDGYTNYTQKFQGRVTMTTDTSTTTVYMELRSLRFDDTAVYYCARDEGLHNWKFNAMDVWGQGTTVIVSS
VL: EIVLTQSPGTLSLSPGERATLSCRASQSVSSSYLAWYQQKPGQAPRLLMSETSRRATGIPDRFSGSVSGTDFILTINRVDPEDFAVYYCQQYSSPPWTFGQGTKVEIK
B9: SNV-3 (antibody, V domains shown)
VH: QVQLQQSGPGLVKPSQTLSLTCAISGDSVSSNSAAWNWIRQSPSRGLEWLGRTYYRSKWYNDYAVSVKSRITINPDTSKNQFSLQMNSVTPEDTAVYYCARDRRKLEPPPFSYYYYGLDVWGQGTTVTVSS
VL: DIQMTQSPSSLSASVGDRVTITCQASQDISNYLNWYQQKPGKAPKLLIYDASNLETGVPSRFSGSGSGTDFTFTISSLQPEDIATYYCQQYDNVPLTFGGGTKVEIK
B10: SNV-45 (antibody, V domains shown)
VH: ELQLVESGGGLIRPGGSLRLSCTAAGFTFSNYNMNWVRQAPGKGLDWVSYISSSGGTTIYADSVKGRFTISRDNAKDSLYLQMNSLRDDDTAIYYCVRGRGQLATHFDYWGQGTLVTVSS
VL: ESVLTQFPDFQSVTPKEKVTITCRASQSIHINLHWYQQKPHQSPKLLIKYASQSIAGVPSRFSGSGSGTEFTLTINGLEAEDAATYYCHQSNSLPWTFGQGTKVEIK
B11: ANDV-54 (antibody, V domains shown)
VH: EVQLVESGGGVVQPGRSLRLSCAASGFTFSPYGMHWVRQAPGKGLEWVAVVWYDGNNKYYADSVKGRFTISRDNSKNTLYLQMNSLRAEDTAVYYCARENTPTYNSGYYFDYWGQGTLVTVSS
VL: QSALTQPASVSGSPGQSITISCTGTSSDVGSYDLVSWYQQHPGKAPKLIIYEGSKRPSGVSNRFSGSKSGNTASLTISGLQAEDEADYYCCSYAGSSTWVFGGGTKVTVL
B12: SNV-27 (antibody, V domains shown)
VH: QVQLVQSGAEVKKPGASVRVSCKAYGYSFNDYFMHWVRQAPGQGLEWMGRVKPSTGGTRYAQKFQGRVTMTLDTSTSTAYVELSSLSSDDTAVYFCARKLGPLGDCSSSSCYSALDVWGQGTMVTVSS
VL: DIQMTQSPSTLSASVGDRVTITCRASESISNWLAWYQQKPGKAPKLLISKASSLESGVPSRFSGSGSGTEFTLTIGSLQPDDFATYYCQQYNTYSWTFGQGTKVDIK
B13: SNV-32 (antibody, V domains shown)
VH: QVQLVQSGAEVKKPGSSVKVSCRASGGTFRSYSISWVRQAPGQGLEWMGDIIPIFSTTNYAQKFQGRVTITADEATSTAYMELSSLRSDDTAVYYCARPSNLLNWFDPWGQGTLVTVSS
VL: EIVMTQSPATLSVSPGERATLSCRASQSVNSNLVWYQQKPGQAPRLLIYGASTRATGIPARISGSGSGTEFTLTISSLQSEDFAVYYCQQYDNRPQTFGQGTKVEIK
B14: SNV-66 (antibody, V domains shown)
VH: QVRLVESGGGVVQPGRSLRLSCAASGFTFRSYGMHWVRQAPGKGLEWVALISLDGSEKHYADSVKGRLTISRDNSKNMLYLQMNNLRVEDTAVYYCAKDRPYSWRDVLDYWGQGTLVTVSS
VL: DIQMTQSPSSLSASVGDRVTITCRASRDIHTSLNWYQHTPGKAPELLIYAASTLEMGVPSRFSGSGSGTDFTFTISSLQPEDIATYYCQQYDELPLTFGGGTKVEMK
B15: ANDV-12 (antibody, V domains shown)
VH: EVQLVESGGGLVQPGGSLRLSCAASGFAFSSYWMTWVRQAPGKGLEFVANIKYDASEKYYVDSVKGRFTISRDNGRNSFYLQMNSLRAEDTAVYYCAVPGPGYSFAYDYWGQGTQVTVSS
VL: DIQMTQSPSSLSASVGDRITITCRASQSVGTYLNWYQQKPGKAPKLLIYEASSLQSGVPSRFSGSGSGTDFTLTISRLQPEDFATYSCQQSDIPPWTFGQGTKVEIK
B16: SNV-57 (antibody, V domains shown)
VH: QVQLVESGGGVVQPGRSLRLSCAASGFTFSSYAMHWVRQAPGKGLEWVALISLDGFNTYYPDSVKGRFTISRDSSKNTLFLQLNSLRIEDTAVYYCVKDRGPTGSGSYGMDVWGQGTTVTVSS
VL: SYELTQPPSVSVSPGQTASITCSGDKLGNKFACWYQQKPGQSPVLVIHQDKKRPSGIPERFSGSNSGNTATLTISGTQAVDEADYYCQAWDSSNVVFGGGTKLTVL
B17: SNV-50 (antibody, V domains shown)
VH: EMQLLESGGGLIQPGESLRLSCAGSGFTFRNYAMSWVRQAPGKGLQWVSAISASGGITHYADSVKGRFTISRDNSKNTLFLQMNSLRAEDTAVYYCAKGEIMRDTGYHDDAFDVWGQGKMVTVSS
VL: DIQLTQSPSFLSASVGDRVTITCRASQGISSYLVWYQQKPGEAPKLLIYTASTLQSGVPSRFSGSGSGTEFTLTISSLQPEDFATYHCQQVESYPYSFGQGTKLEIK
B18: SNV-39 (antibody, V domains shown)
VH: QEQLEESGGGVVQPGRSLTLSCAASGFTFRSYDMHWVRQAPGKGLEWVALISYDGRNKHYGDSVKGRFTISRDNSKNTLYLHLSSLRAEDTSVYYCARGADNGLFTDSWGQGTLVIVSS
VL: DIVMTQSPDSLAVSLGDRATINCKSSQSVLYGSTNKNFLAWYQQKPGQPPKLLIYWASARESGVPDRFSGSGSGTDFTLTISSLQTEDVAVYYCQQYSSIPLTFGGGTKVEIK
B19: SNV-21 (antibody, V domains shown)
VH: QVQLVESGGGVVQPGRALRLSCAASGFTFSSYGMHWVRQAPGKGLEWVAVVWNDGGNKYYADSVKGRFTISRDNSKNTLYLQMNSLRAEDTAVYFCARDGYYVSSGYHPLRYYYYYMDVWGKGTTVAVSS
VL: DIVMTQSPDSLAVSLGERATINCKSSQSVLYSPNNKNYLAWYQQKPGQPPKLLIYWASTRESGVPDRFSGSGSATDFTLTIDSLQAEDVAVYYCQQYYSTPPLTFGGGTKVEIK
B20: SNV-42 (antibody, V domains shown)
VH: EVQLVESGGGLVQPGGSLRLSCAASGFTFSTYEMNWVRQAPGKGLEWISYIRSSGSTVYYADSVKGRFTISRDNAKNLLYLQMNSLRAGDTAVYYCARIPGGYTGYFDYWGQGALVTVSS
VL: QSVLTQPPSVSGAPGQRVTISCTGSSSNIGAGYYVHWYQQLPGTVPKLLIYGNNNRPSGVPDRFSGSKSGTSASLAITGLQTEDEADYYCQSYDSSLSGWVFGGGTKLTVL
B21: SNV-56 (antibody, V domains shown)
VH: EVQLVESGGRLVRPGGSLRLSCAASGFTFSHYNMNWVRQAPGKGLEWVSSINSRNGYTYYADSVKGRFTISRDNAKNSLYLQMNSLRPEDTAVYYCARDPPLYSGYDLGYYYYGMDVWGQGTTVTVSS
VL: DIQMTQSPSTLSAFVGDRVTITCRANQNISKWLAWYQQKPGKAPNLLIHKASSLESGVPSRFSGSGSGTEFTLTISSLQPDDFATYSCQQYNSYPWAFGQGTRVEIK
B22: SNV-62 (antibody, V domains shown)
VH: QVLLVQSGAEVKKPGASVKVSCKASGYTFTSYFIHWVRQAPGQGLEWMGMINPISGNTNYAQKFQGRVTMTRDTSTRTVYMQLSSLTFEDTAVYSCVRWTTVPSSFDFWGQGTLVTVSS
VL: SYELTQPPSVSVSPGQTARITCSGDALPNQYVNWYQQKPGQAPVLMMFKDNQRPSGIPERFSGSRSGTTVTLSISGVQAEDEADYHCQSADRTATSVAFGGGTKLTVL
B23: SNV-25 (antibody, V domains shown)
VH: QVQLQESGPGLVKPSGTLSLTCAVSGGSISSSNWWSWVRQPPGKGLEWIGEIYHSGSTNYNPSLKSRATISVDKSKNQFSLKLSSVTAADTAFYYCARARGEWLAHFDYWGQGTLVTVSS
VL: DIQMTQSPSTLSASVGDRVTITCRASQSISRWLAWYQQKPGKAPKLLIYKASSLESGVPSRFSGSGSGTEFTLTISSLQPDDFAIYYCQQYNTDKTFGQGTKVEIK

Columns and labels:
[1] = target: T1, Sin Nombre virus (SNV) glycoproteins Gn and Gc displayed on the surface of Expi293F cells transfected with … (Sin Nombre virus); experiment: flow
[2] = target: T1, Sin Nombre virus (SNV) glycoproteins Gn …; experiment: flow; remark: listed apart in the source

| Binder | EC50 [1] [ng/mL] | EC50 [2] [ng/mL] |
| --- | --- | --- |
| B1 | 7.2 | – |
| B2 | 10 | – |
| B3 | 6.5 | – |
| B4 | 15 | – |
| B5 | 5.5 | – |
| B6 | 3.4 | – |
| B7 | 3.5 | – |
| B8 | – | 1090 |
| B9 | 5.6 | – |
| B10 | 9.9 | – |
| B11 | – | 3670 |
| B12 | 11 | – |
| B13 | 14 | – |
| B14 | 7.7 | – |
| B15 | – | 16 |
| B16 | 6 | – |
| B17 | 5.2 | – |
| B18 | 14 | – |
| B19 | 20 | – |
| B20 | 5.9 | – |
| B21 | 66 | – |
| B22 | 2.6 | – |
| B23 | 7.2 | – |

— patent US20220380442A1 (published 2022)
